Reference: US20180185516A1, “DELIVERY OF TARGET SPECIFIC NUCLEASES” (Sangamo Therapeutics, Inc., priority 2016, published 2018)

What was measured:
mouse albumin = experiment: Indel analysis (nuclease activity) in livers of mice injected intravenously with ZFN mRNA LNPs; type: in vivo; conditions: 48641/31523 mRNA LNP (II-9), single dose 2 mg/kg; FIG. 4B
Method: 8-10 week old C57BL6 purchased from Charles River were injected intravenously through the tail vein with 200 uL of an aqueous solution containing diluted LNPs or a mixture of diluted LNPs and AAV donor encoding a human IDS or human FIX transgene containing homology arms flanking the ZFN cut site and a splice acceptor just upstream of the coding sequence of the transgene. Some animals were injected with 5 mg/kg dexamethasone intraperitoneally 30 minutes prior to LNP dosing. Animals were then sacrificed 7 days post LNP dosing or re-dosed with LNPs at either a 7 or 14 day interval before subsequent sacrifice and harvesting of liver tissue. Livers were snap frozen and a small portion of both the left and right lobes were dissected and harvested for gDNA using a FastPrep-24 Homogenizer (MP Biomedicals), Lysis Matrix D solution (MP Biomedicals), and a MasterPure DNA Purification kit (Epicentre).
Primers were designed to amplify approximately 200 bp of total genomic DNA sequence containing the ZFN cut site. Amplicons were then ran on either a Miseq or Nextseq (Illumina) and insertions and deletions (indels) from the wildtype genomic sequence were quantified.
To test the ability of targeted zinc finger nucleases to cleave a site in the mouse genome in vivo, mRNAs encoding albumin specific nucleases were incorporated into LNPs as described above using the cationic lipid I-6. […]

[1] = system: ZFN 48641 (mALB) (synthetic); experiment: cell_activity; conditions: pair with 31523; mouse liver after third 2 mg/kg LNP dose
[2] = system: ZFN 31523 (mALB) (synthetic); experiment: cell_activity; conditions: pair with 48641; mouse liver after third 2 mg/kg LNP dose

`C[C@H]1C[C@@H]2[C@H]([C@@H](O)C[C@@]3(C)[C@H]2CC[C@]3(O)C(=O)COC(=O)CCC(=O)[O-])[C@@]2(C)C=CC(=O)C=C12.[Na+]` [Solumedrol®, methylprednisolone sodium succinate] was tested, and the “nuclease activity, dexamethasone pretreatment vs Solumedrol pretreatment plus 3 days” value (mouse albumin) was “slightly more efficacious”.
In the case of “CTGAAGGTGGCAATGGTTCCTCTCTGCT (double strand) [mouse ALB intron 1 left half-site]”, the activity [1] is reported as 25 % indels.
“TTTCCTGTAACGATCGGGAACTGGCATC (double strand) [mouse ALB intron 1 right half-site]” showed an activity [2] of 25 % indels.
